The record followed here is US20160075789A1 (EDIMER PHARMACEUTICALS, published 2016).

This assay concerns the target T1, Fc-APRIL (UniProt O75888 105-250, limits assumed).
T1 construct: also called control protein Fc-APRIL; not shown: Fc portion; not described for this construct
T1 sequence (looked up): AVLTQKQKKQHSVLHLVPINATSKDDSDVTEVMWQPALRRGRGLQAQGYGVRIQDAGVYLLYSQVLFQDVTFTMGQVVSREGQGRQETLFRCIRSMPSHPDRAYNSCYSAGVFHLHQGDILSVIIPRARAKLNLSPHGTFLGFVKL
The assay can be described thus: western blot under reducing conditions. Background: A western blot detects proteins with antibodies after separation by electrophoresis.

B1: mAbEDA1-EctoD3 (antibody, mouse IgG1, V domains shown)
VH: QVQLHQSGAELARPGASVKLSCKASGYTFTSYGISWVKQRTGQGLEWIGEVYPRSGDTYYHDYFEGKATLTADKSSSTAYMELRSLTSEDSAVYFCARGDYADVWGTGTTVTVSS
VL: DIVLTQSPASLAVSLGQRATISCRASKSVSTFGNSYMLWYQQKPGQPPKLLIYLASNLESGVPARFSGSGSGTDFTLNIHPVEEEDAATYYCQNSRELPYTFGGGTKLEIKR
notes: also called EctoD3-biotin; EctoD3-biot
Take B1: the binding result is recorded as “no binding”.
